Assays:
[1] = target: Tomato Leaf Curl Sudan Virus (ToLCSDV) purified viral particles (Tomato Leaf Curl Sudan Virus)
[2] = target: Tomato Leaf Curl Sudan Virus (ToLCSDV) purified viral particles (Tomato Leaf Curl Sudan Virus); experiment: SPR single-cycle kinetics, ToLCSDV captured at 185 RU
[3] = target: Tomato Leaf Curl Sudan Virus (ToLCSDV) purified viral particles (Tomato Leaf Curl Sudan Virus); experiment: SPR single-cycle kinetics, ToLCSDV captured at 310 RU
[4] = target: Tomato Leaf Curl Sudan Virus (ToLCSDV) purified viral particles (Tomato Leaf Curl Sudan Virus); experiment: SPR single-cycle kinetics, ToLCSDV captured at 405 RU

B1: Nb-To2 (VHH)
VHH: QVQLQESGGGSVQAGGSLRLSCVASGDTLRLCRMGWYRQAPGKGRELVSSMEIDGTTNYADSVKGRFTISQGDNRNTMYLQMNSLKPEDTAMYYCKMEGGYGGNCRLAIYNYWGQGTQVTVSS
In the case of B1, the A1 (% ToLCSDV Binding) [1] is reported as -0.842, the A2 (% ToLCSDV Binding) [1] is reported as 101 and the EC20 (dilution of the NbTo2 sample) [1] is reported as 0.00459. For the same binder, the EC80 (dilution of the NbTo2 sample) [1] was 0.000613, the LOGx0 (log(dilution NbTo2)) [1] was -2.78 and the p [1] was -1.38. The span (% ToLCSDV Binding) [1] was 102, the Kd [2] was 0.292 nM and the koff [2] was 0.00135 s⁻¹. The kon [2] was 4.65e+06 M⁻¹ s⁻¹, the Kd [3] was 0.374 nM and the koff [3] was 0.00151 s⁻¹. The kon [3] was 4.05e+06 M⁻¹ s⁻¹, the Kd [4] was 0.432 nM and the koff [4] was 0.00161 s⁻¹. For the same binder, the kon [4] was 3.72e+06 M⁻¹ s⁻¹.
